The results in this text go back to paper PMC3397948, “Cytoplasmic Sulfurtransferases in the Purple Sulfur Bacterium Allochromatium vinosum: Evidence for Sulfur Transfer from DsrEFH to DsrC” (PLoS ONE, 2012).

First the molecules themselves.
B1: DsrC from Allochromatium vinosum, wild type [Allochromatium vinosum] / DsrEFH from Allochromatium vinosum (DsrE2F2H2 heterohexamer), wild type [Allochromatium vinosum] (parent complex)
chain 1: MADTIEVDGKQFAVDEEGYLSNLNDWVPGVADVMAKQDNLELTEEHWDIINFLREYYEEYQIAPAVRVLTKAVGKKLGKEKGNSKYLYSLFPYGPAKQACRFAGLPKPTGCV
chain 2: MKFALQINEGPYQHQASDSAYQFAKAALEKGHEIFRVFFYHDGVNNSTRLTTPPQDDRHIVNRWAELAEQYELDMVVCVAAAQRRGIVDEGEASRNGKDATNIHPKFRISGLGQLVEAAIQADRLVVFGD
chain 3: MSEVVKKFMYLNRKAPYGTIYAWEALEVVLIGAAFDQDVCVLFLDDGVYQLTRGQDTKGIGMKNFSPTYRTLGDYEVRRIYVDRDSLEARGLTQDDLVEIAFEDMETEEEFDNIVEVIDSARVSELMNESDAVFSF
chain 4: MSILHTVNKSPFERNSLESCLKFATEGASVLLFEDGIYAALAGTRVESQVTEALGKLKLYVLGPDLKARGFSDERVIPGISVVDYAGFVDLTTECDTVQAWL

The variants in the assay derive from B1. Kind of assay: SPR; DsrEFH immobilized; reduced analyte, 80 nM; parent: 35; read off a plot. For orientation: SPR reads the build-up and loss of mass on a sensor chip optically.
Turning to chain 1 C100S, chain 1 C111S, the response is around 2.8 RU.
The result for chain 1 C111S reads around 3 RU.
Regarding chain 1 C100S, the response is around 31 RU.
